Test results from article PMC10551896, “Methylation of the transcription factor E2F1 by SETD6 regulates SETD6 expression via a positive feedback mechanism” (The Journal of Biological Chemistry, 2023).

Molecular target: T1, recombinant glutathione-S-transferase (GST)-tagged SETD6 (UniProt Q8TBK2 1-473)
T1 construct: SET domain-containing protein 6 (SETD6), a 53 kDa protein lysine methyltransferase; also called GST-SETD6; GST SETD6
T1 sequence (looked up): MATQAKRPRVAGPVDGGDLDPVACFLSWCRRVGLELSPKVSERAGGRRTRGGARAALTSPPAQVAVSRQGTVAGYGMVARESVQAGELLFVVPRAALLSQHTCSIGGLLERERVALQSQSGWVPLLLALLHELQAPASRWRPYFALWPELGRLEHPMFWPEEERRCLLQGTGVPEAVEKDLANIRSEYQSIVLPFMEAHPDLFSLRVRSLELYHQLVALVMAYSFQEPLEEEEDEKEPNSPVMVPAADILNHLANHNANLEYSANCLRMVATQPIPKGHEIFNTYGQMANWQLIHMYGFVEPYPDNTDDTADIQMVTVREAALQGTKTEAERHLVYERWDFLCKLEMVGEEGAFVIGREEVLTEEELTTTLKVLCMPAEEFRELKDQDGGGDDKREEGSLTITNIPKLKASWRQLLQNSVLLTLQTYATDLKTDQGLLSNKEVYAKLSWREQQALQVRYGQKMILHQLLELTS
Assay: ELISA; His-SUMO-E2F1 (2 ug) in PBS immobilised on a 96-well plate, 1 h room temperature, blocked with 3% BSA; 0.5 ug GST-SETD6 in 1% BSA in PBS and Tween-20 for 1 h at room temperature; detected with anti-GST and HRP-conjugated secondary antibody, absorbance at 450 nm
Details: both partners purified

binding result: binds
B1: recombinant His-SUMO-E2F1 (natural protein)
chain: not shown
notes: the same insert was cloned into pET-SUMO and pGEX-6p1; also called His-SUMO-E2F1 WT; source: E. coli Rosetta, purified (nickel-nitrilotriacetic acid beads or HisTrap column)
